Substrate in this data set: O=[N+]([O-])c1ccccc1O[C@@H]1O[C@H](CO)[C@H](O)[C@H](O)[C@H]1O
In words: purified protein. The format is biochemical, Bifidobacterium breve. The note with it: 50 mM sodium phosphate pH 6.5, 30 °C, 0.01-22 mM oNPG.

Data on one protein can be found in paper PMC12756740, “A GH42 β‑Galactosidase from the Human Isolate Bifidobacterium breve DSM 20213: Biochemical and Transgalactosylation Properties Reveal the Potential for Galacto-oligosaccharides Synthesis” (ACS Omega, 2025).

As usually defined, the Km is the concentration of substrate that gives half-maximal velocity. Usually Vmax stands for the rate approached at saturating substrate. In general, kcat refers to the number of substrate molecules converted per active site and unit of time at saturation. In general, kcat/Km refers to the turnover number divided by the Michaelis constant.

B1: Bbreβgal-III (Bifidobacterium breve DSM 20213 = JCM 1192) (protein)
chain: MEHREFKWPQPLAGGKPRIWYGGDYNPDQWPEEVWDEDVALMQKAGVNLVSVAIFSWAKLEPEEGVYDFDWLDRVIDKLGKAGIAVDLASGTASPPMWMTQAHPEILWVDYRGDVCQPGARQHWRATSPVFLDYALNLCRKMAEHYKDNPYVVSWHVSNEYGCHNRFDYSEDAERAFQKWCEKKYGTIDAVNDAWGTAFWAQRMNNFSEIIPPRFIGDGNFMNPGKLLDWKRFSSDALLDFYKAERDALLEIAPKPQTTNFMVSAGGAGIDYDKWGYDVDFVSNDHYFTPGEAHFDELAYSASLCDGIARKNPWFLMEHSSSAVNWRPINYRVEPGELVRDSLAHLAMGSDAICYFQWRQSKAGAEKWHSSMVPHAGPDSQIFRDVCELGADLNKLADEGLLSTKLVKSKVAVVFDYESQWATEHTATPTQEVRHWTEPLAWFRALADNGLTADVVPVRGPWDEYEAVVLPSLTILSEETTRRVREYVANGGKLFVTYYTGLVDDKDHVWLGGYPGSIRDVVGVRVEEFAPMGNDFPGAIDHLDLDNGTVAHDFADVITSVADTAHVVAAFKADKWTGFDGAPAITVNDFGDGKAAYIGARLGREGLAKSLPALLEELGIETSAEDDRGEVLRVERADETGENHFVFLFNRTHDVAIVDVDGEPLVASLAQVNESEHTAAIQPNGVLVVKL
notes: pET21a(+) NdeI/NotI, His-tagged, E. coli BL21 Star (DE3), IMAC purified
For B1, the Km came out at 1570 ± 160 µM, the Vmax was 3650 µmol/min/mg, the kcat was determined as 4690 ± 260 s⁻¹ and the catalytic efficiency (kcat/Km) worked out at 2.99e+06 ± 140000 M⁻¹ s⁻¹.
